In patent publication US20090170069:

Biological target: T1, NFluc-Pum2 (pumilio domain) (UniProt Q8TB72)
T1 sequence: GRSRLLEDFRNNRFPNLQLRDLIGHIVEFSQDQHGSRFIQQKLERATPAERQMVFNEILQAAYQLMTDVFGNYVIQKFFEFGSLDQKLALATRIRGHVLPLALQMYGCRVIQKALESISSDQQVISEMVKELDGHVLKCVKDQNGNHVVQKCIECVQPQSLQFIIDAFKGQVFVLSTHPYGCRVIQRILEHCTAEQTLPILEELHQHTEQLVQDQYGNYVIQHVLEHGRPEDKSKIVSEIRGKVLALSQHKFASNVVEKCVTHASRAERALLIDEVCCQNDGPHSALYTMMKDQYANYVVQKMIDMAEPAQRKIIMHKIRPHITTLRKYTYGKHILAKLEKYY
Conditions: ternary with CFluc-Ago

CAUGGUGUAUAUAGUCUUUUGAUAUAGCGGC / CUAUAUACACCAUGUU [Pum target RNA + Pum1 guide]
activity (fold luminescence vs controls): 3
